Results taken from US20140011738A1 (INDIANA UNIVERSITY RESEARCH AND TECHNOLOGY, published 2014).
*1 amine or outer side, *2 acyl side, *3 side chain or, on linkers, in order; H or OH if unused. Where no end group is shown, it is not given here. Side-chain parts run from the residue outwards. [ ]: non-standard residue; d: D form. The star is where a group is joined. γGlu = O=C(O)[C@H](CCC(=O)[*:2])N[*:1]; Palmitoyl = CCCCCCCCCCCCCCCC(=O)*; Aib = CC(C)(N)C(=O)O

T1: GIP receptor (UniProt P48546 22-466, limits assumed)
T1 sequence (looked up): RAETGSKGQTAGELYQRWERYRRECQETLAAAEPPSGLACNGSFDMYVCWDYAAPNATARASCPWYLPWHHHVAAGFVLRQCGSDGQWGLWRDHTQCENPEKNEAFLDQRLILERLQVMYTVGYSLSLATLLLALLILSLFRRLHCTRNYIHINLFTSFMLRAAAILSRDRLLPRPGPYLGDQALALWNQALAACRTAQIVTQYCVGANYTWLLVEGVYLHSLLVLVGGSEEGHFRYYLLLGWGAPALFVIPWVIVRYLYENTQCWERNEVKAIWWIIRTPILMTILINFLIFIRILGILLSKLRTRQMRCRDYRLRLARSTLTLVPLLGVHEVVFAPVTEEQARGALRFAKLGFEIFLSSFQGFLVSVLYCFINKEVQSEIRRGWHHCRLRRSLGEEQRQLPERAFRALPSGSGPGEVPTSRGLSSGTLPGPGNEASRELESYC

B1: peptide of SEQ ID NO: 17 (peptide)
peptide: H[Aib]QGTFTSDYAKYLDERAAQDFVQWLLDGGPSSGAPPPSK([γGlu-γGlu-Palmitoyl])G-NH2
B2: peptide of SEQ ID NO: 15 (peptide)
peptide: H[Aib]QGTFTSDYSKYLEERAAQDFVQWLLDGGPSSGAPPPSK([γGlu-γGlu-Palmitoyl])G-NH2
B3: peptide of SEQ ID NO: 10 (peptide)
peptide: H[Aib]QGTFTSDK([γGlu-Palmitoyl])SKYLDERAAQDFVQWLLDGGPSSGAPPPS-NH2
B4: peptide of SEQ ID NO: 11 (peptide)
peptide: H[Aib]QGTFTSDYSKYLDERAAQDFVQWLLDGGPSSGAPPPSK([γGlu-γGlu-Palmitoyl])G-NH2
B5: peptide of SEQ ID NO: 43 (peptide)
peptide: H[Aib]QGTFTSDK([γGlu-Palmitoyl])SKYLDERAAQDFVQWLLEGGPSSGAPPPS-NH2
modifications: N-terminus assumed
SMILES: CCCCCCCCCCCCCCCC(=O)N[C@@H](CCC(=O)NCCCC[C@H](NC(=O)[C@H](CC(=O)O)NC(=O)[C@H](CO)NC(=O)[C@@H](NC(=O)[C@H](Cc1ccccc1)NC(=O)[C@@H](NC(=O)CNC(=O)[C@H](CCC(N)=O)NC(=O)C(C)(C)NC(=O)[C@@H](N)Cc1c[nH]cn1)[C@@H](C)O)[C@@H](C)O)C(=O)N[C@@H](CO)C(=O)N[C@@H](CCCCN)C(=O)N[C@@H](Cc1ccc(O)cc1)C(=O)N[C@@H](CC(C)C)C(=O)N[C@@H](CC(=O)O)C(=O)N[C@@H](CCC(=O)O)C(=O)N[C@@H](CCCNC(=N)N)C(=O)N[C@@H](C)C(=O)N[C@@H](C)C(=O)N[C@@H](CCC(N)=O)C(=O)N[C@@H](CC(=O)O)C(=O)N[C@@H](Cc1ccccc1)C(=O)N[C@H](C(=O)N[C@@H](CCC(N)=O)C(=O)N[C@@H](Cc1c[nH]c2ccccc12)C(=O)N[C@@H](CC(C)C)C(=O)N[C@@H](CC(C)C)C(=O)N[C@@H](CCC(=O)O)C(=O)NCC(=O)NCC(=O)N1CCC[C@H]1C(=O)N[C@@H](CO)C(=O)N[C@@H](CO)C(=O)NCC(=O)N[C@@H](C)C(=O)N1CCC[C@H]1C(=O)N1CCC[C@H]1C(=O)N1CCC[C@H]1C(=O)N[C@@H](CO)C(N)=O)C(C)C)C(=O)O
B6: peptide of SEQ ID NO: 44 (peptide)
peptide: H[Aib]EGTFTSDK([γGlu-Palmitoyl])SKYLDERAAQDFVQWLLEGGPSSGAPPPS-NH2
modifications: N-terminus assumed
SMILES: CCCCCCCCCCCCCCCC(=O)N[C@@H](CCC(=O)NCCCC[C@H](NC(=O)[C@H](CC(=O)O)NC(=O)[C@H](CO)NC(=O)[C@@H](NC(=O)[C@H](Cc1ccccc1)NC(=O)[C@@H](NC(=O)CNC(=O)[C@H](CCC(=O)O)NC(=O)C(C)(C)NC(=O)[C@@H](N)Cc1c[nH]cn1)[C@@H](C)O)[C@@H](C)O)C(=O)N[C@@H](CO)C(=O)N[C@@H](CCCCN)C(=O)N[C@@H](Cc1ccc(O)cc1)C(=O)N[C@@H](CC(C)C)C(=O)N[C@@H](CC(=O)O)C(=O)N[C@@H](CCC(=O)O)C(=O)N[C@@H](CCCNC(=N)N)C(=O)N[C@@H](C)C(=O)N[C@@H](C)C(=O)N[C@@H](CCC(N)=O)C(=O)N[C@@H](CC(=O)O)C(=O)N[C@@H](Cc1ccccc1)C(=O)N[C@H](C(=O)N[C@@H](CCC(N)=O)C(=O)N[C@@H](Cc1c[nH]c2ccccc12)C(=O)N[C@@H](CC(C)C)C(=O)N[C@@H](CC(C)C)C(=O)N[C@@H](CCC(=O)O)C(=O)NCC(=O)NCC(=O)N1CCC[C@H]1C(=O)N[C@@H](CO)C(=O)N[C@@H](CO)C(=O)NCC(=O)N[C@@H](C)C(=O)N1CCC[C@H]1C(=O)N1CCC[C@H]1C(=O)N1CCC[C@H]1C(=O)N[C@@H](CO)C(N)=O)C(C)C)C(=O)O
B7: peptide of SEQ ID NO: 18 (peptide)
peptide: H[Aib]QGTFTSDK([γGlu-Palmitoyl])SKYLEERAAQEFVQWLLEGGPSSGAPPPS-NH2
modifications: N-terminus assumed
SMILES: CCCCCCCCCCCCCCCC(=O)N[C@@H](CCC(=O)NCCCC[C@H](NC(=O)[C@H](CC(=O)O)NC(=O)[C@H](CO)NC(=O)[C@@H](NC(=O)[C@H](Cc1ccccc1)NC(=O)[C@@H](NC(=O)CNC(=O)[C@H](CCC(N)=O)NC(=O)C(C)(C)NC(=O)[C@@H](N)Cc1c[nH]cn1)[C@@H](C)O)[C@@H](C)O)C(=O)N[C@@H](CO)C(=O)N[C@@H](CCCCN)C(=O)N[C@@H](Cc1ccc(O)cc1)C(=O)N[C@@H](CC(C)C)C(=O)N[C@@H](CCC(=O)O)C(=O)N[C@@H](CCC(=O)O)C(=O)N[C@@H](CCCNC(=N)N)C(=O)N[C@@H](C)C(=O)N[C@@H](C)C(=O)N[C@@H](CCC(N)=O)C(=O)N[C@@H](CCC(=O)O)C(=O)N[C@@H](Cc1ccccc1)C(=O)N[C@H](C(=O)N[C@@H](CCC(N)=O)C(=O)N[C@@H](Cc1c[nH]c2ccccc12)C(=O)N[C@@H](CC(C)C)C(=O)N[C@@H](CC(C)C)C(=O)N[C@@H](CCC(=O)O)C(=O)NCC(=O)NCC(=O)N1CCC[C@H]1C(=O)N[C@@H](CO)C(=O)N[C@@H](CO)C(=O)NCC(=O)N[C@@H](C)C(=O)N1CCC[C@H]1C(=O)N1CCC[C@H]1C(=O)N1CCC[C@H]1C(=O)N[C@@H](CO)C(N)=O)C(C)C)C(=O)O
B8: peptide of SEQ ID NO: 16 (peptide)
peptide: H[Aib]QGTFTSEYSKYLDERAAQDFVQWLLDGGPSSGAPPPSK([γGlu-γGlu-Palmitoyl])G-NH2

How the values were obtained:
Test in all cases: cell-based or functional assay
[1] = target: GLP-1 receptor (UniProt P43220 24-463, limits assumed)
[2] = target: T1, GIP receptor
[3] = target: glucagon receptor (UniProt P47871 26-477, limits assumed)
Sequence of glucagon receptor (P47871 26-477 limits assumed): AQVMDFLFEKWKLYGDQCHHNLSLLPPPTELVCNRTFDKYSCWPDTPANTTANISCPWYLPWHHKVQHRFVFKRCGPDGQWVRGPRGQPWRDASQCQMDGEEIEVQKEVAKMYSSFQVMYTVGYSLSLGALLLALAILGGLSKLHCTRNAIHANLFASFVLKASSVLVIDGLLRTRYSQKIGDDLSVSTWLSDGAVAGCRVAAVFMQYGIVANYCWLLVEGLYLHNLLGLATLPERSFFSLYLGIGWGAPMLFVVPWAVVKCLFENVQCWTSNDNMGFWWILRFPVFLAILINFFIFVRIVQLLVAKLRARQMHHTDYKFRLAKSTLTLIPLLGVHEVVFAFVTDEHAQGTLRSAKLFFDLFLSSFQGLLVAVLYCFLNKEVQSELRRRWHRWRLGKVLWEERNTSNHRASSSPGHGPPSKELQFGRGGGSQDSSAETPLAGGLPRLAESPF

Sequence of GLP-1 receptor (P43220 24-463 limits assumed): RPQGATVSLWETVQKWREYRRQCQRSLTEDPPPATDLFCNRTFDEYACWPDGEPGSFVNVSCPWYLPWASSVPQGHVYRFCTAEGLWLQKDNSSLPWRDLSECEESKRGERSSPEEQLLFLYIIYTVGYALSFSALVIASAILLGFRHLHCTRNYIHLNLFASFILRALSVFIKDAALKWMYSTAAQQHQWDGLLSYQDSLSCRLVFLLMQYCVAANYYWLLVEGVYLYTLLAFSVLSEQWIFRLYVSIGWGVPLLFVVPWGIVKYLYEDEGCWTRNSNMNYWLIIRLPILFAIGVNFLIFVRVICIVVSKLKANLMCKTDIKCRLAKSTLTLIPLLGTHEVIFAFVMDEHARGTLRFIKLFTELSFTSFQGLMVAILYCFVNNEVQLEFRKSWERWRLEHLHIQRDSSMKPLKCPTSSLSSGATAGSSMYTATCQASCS

Binder	EC50 at GLP-1 Receptor [1] [pM]	EC50 at GIP Receptor [2] [nM]	EC50 at Glucagon Receptor [3] [pM]
B1	8	0.02	19
B2	3	0.008	5
B3	4	0.004	4
B4	1	0.024	4
B5	4	0.005	6
B6	7	0.027	1470
B7	8	0.007	7
B8	2	0.054	28
